From doi:10.1101/2021.06.09.447716

Molecular target: BACE1-GFP (UniProt P56817)
Assay: co-IP

Chain of UniProt P56817 (P56817 46-501): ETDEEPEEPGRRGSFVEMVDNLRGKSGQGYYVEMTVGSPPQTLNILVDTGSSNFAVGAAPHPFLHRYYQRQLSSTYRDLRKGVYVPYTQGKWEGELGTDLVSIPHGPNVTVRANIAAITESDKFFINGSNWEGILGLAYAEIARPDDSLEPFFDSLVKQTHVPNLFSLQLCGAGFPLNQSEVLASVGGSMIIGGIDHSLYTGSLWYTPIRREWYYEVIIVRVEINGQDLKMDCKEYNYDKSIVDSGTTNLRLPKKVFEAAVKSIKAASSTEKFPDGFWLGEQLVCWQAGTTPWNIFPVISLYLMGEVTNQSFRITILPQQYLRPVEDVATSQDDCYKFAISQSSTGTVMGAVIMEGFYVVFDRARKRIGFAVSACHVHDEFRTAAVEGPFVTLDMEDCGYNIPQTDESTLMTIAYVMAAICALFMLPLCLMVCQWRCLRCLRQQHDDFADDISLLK

reduction of co-immunoprecipitated Bin1 against Bin1-WT: 65%
Substance: Bin1-KR (neuronal Bin1-MYC with the LOAD mutation K358R, rs138047593) (from UniProt O08539-1 1-588) (natural protein)
